According to the supplement of paper PMC10567573:

B1: TNNI2 (parent)
chain: DWRKNIEEKSGMEGRKKMFESES

Variants of: B1
Test: protein stability index of a GFP-peptide fusion (GPS, HEK-293T) (PSI 1-6); higher = more stable
Conditions: c terminus: native
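Also: lentivirally expressed fusions sorted by FACS into six bins by GFP to DsRed ratio, PSI derived from sequencing read proportions per bin multiplied by bin number.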

| Variant | protein stability index |
| --- | --- |
| DWRKNIEEKSGMEGTKKMFESES | 2.7 |
| DWRKNIEEKSGMEGNKKMFESES | 2.77 |
| DWRKNIEEKSGMEGFKKMFESES | 1.62 |
| DWRKNIEEKSGMEGHKKMFESES | 2.15 |
| DWRKNIEEKSGMEGAKKMFESES | 2.59 |
| DWRKNIEEKSGMEGLKKMFESES | 2.56 |
| DWRKNIEEKSGMEGIKKMFESES | 1.71 |
| DWRKNIEEKSGMEGQKKMFESES | 3.12 |
| DWRKNIEEKSGMEGKKKMFESES | 3.5 |
| DWRKNIEEKSGMEGDKKMFESES | 2.44 |
| DWRKNIEEKSGMEGYKKMFESES | 2.15 |
| DWRKNIEEKSGMEGPKKMFESES | 2.98 |
| DWRKNIEEKSGMEGGKKMFESES | 1.76 |
| DWRKNIEEKSGMEGEKKMFESES | 2.8 |
| DWRKNIEEKSGMEGMKKMFESES | 1.51 |
| DWRKNIEEKSGMEGRKKHFESES | 2.7 |
| DWRKNIEEKSGMEGRKKEFESES | 4.34 |
| DWRKNIEEKSGMEGRKKDFESES | 6 |
| DWRKNIEEKSGMEGRKKCFESES | 3.89 |
| DWRKNIEEKSGMEGRKKGFESES | 5.42 |
| DWRKNIEEKSGMEGRKKIFESES | 1.98 |
| DWRKNIEEKSGMEGRKKAFESES | 2.26 |
| DWRKNIEEKSGWEGRKKMFESES | 1.39 |
| DWRKNIEEKSGYEGRKKMFESES | 2.94 |
| DWRKNIEEKSGQEGRKKMFESES | 2.02 |

| Variant | protein stability index |
| --- | --- |
| DWRKNIEEKSGTEGRKKMFESES | 3.47 |
| DWRKNIEEKSGSEGRKKMFESES | 2.5 |
| DWRKNIEEKSGREGRKKMFESES | 2.74 |
| DWRKNIEEKSGVEGRKKMFESES | 2.39 |
| DWRKNIEEKSGMCGRKKMFESES | 2.78 |
| DWRKNIEEKSGMPGRKKMFESES | 2.34 |
| DWRKNIEEKSGMFGRKKMFESES | 1.73 |
| DWRKNIEEKSGMKGRKKMFESES | 2.94 |
| DWRKNIEEKSGMDGRKKMFESES | 2.52 |
| DWRKNIEEKSGMHGRKKMFESES | 2.19 |
| DWRKNIEEKSGMTGRKKMFESES | 3.7 |
| DWRKNIEEKSGMRGRKKMFESES | 2.72 |
| DWRKNIEEKSGMVGRKKMFESES | 2.33 |
| DWRKNIEEKSGMWGRKKMFESES | 1.81 |
| DWRKNIEEKSGMMGRKKMFESES | 2.03 |
| DWRKNIEEKSGMGGRKKMFESES | 3.41 |
| DWRKNIEEKSGMAGRKKMFESES | 2.01 |
| DWRKNIEEKSGMLGRKKMFESES | 2.47 |
| DWRKNIEEKSGMYGRKKMFESES | 2.15 |
| DWRKNIEEKSGMSGRKKMFESES | 1.77 |
| DWRKNIEEKSGMNGRKKMFESES | 2.75 |
| DWRKNIEEKSGMQGRKKMFESES | 2.03 |
| DWRKNIEEKSGMEFRKKMFESES | 1.93 |
| DWRKNIEEKSGMETRKKMFESES | 1.41 |
| DWRKNIEEKSGMEVRKKMFESES | 1.08 |

| Variant | protein stability index |
| --- | --- |
| DWRKNIEEKSGMEWRKKMFESES | 2.78 |
| DWRKNIEEKSGMEIRKKMFESES | 1.6 |
| DWRKNIEEKSGMERRKKMFESES | 2.55 |
| DWRKNIEEKSGMEDRKKMFESES | 1.67 |
| DWRKNIEEKSGMEMRKKMFESES | 1.99 |
| DWRKNIEEKSGMENRKKMFESES | 2.22 |
| DWRKNIEEKSGMECRKKMFESES | 2.56 |
| DWRKNIEEKSGMEKRKKMFESES | 1.31 |
| DWRKNIEEKSGMEPRKKMFESES | 2.56 |
| DWRKNIEEKSGMEHRKKMFESES | 1.94 |
| DWRKNIEEKSGMEERKKMFESES | 1.38 |
| DWRKNIEEKSGMESRKKMFESES | 1.63 |
| DWRKNIEEKSGMEARKKMFESES | 1.43 |
| DWRKNIEEKSGMEGRKEMFESES | 2.36 |
| DWRKNIEEKSGMEGRKFMFESES | 2.48 |
| DWRKNIEEKSGMEGRKIMFESES | 3.32 |
| DWRKNIEEKSGMEGRKLMFESES | 2.01 |
| DWRKNIEEKSGMEGRKVMFESES | 3.07 |
| DWRKNIEEKSGMEGRKDMFESES | 2.83 |
| DWRKNIEEKSGMEGRKCMFESES | 2.41 |
| DWRKNIEEKSGMEGRKHMFESES | 3.84 |
| DWRKNIEEKSGMEGRKTMFESES | 2.39 |
| DWRKNIEEKSGMEGRKAMFESES | 2.25 |
| DWRKNIEEKSGMEGRKMMFESES | 2.42 |
| DWRKNIEEKSGMEGRKRMFESES | 1.97 |

| Variant | protein stability index |
| --- | --- |
| DWRKNIEEKSGMEGRKSMFESES | 2.82 |
| DWRKNIEEKSGMEGRKNMFESES | 2.56 |
| DWRKNIEEKSGMEGRKQMFESES | 2.39 |
| DWRKNIEEKSGMEGRKPMFESES | 3.08 |
| DWRKNIEEKSGMEGRKYMFESES | 2.6 |
| DWRKNIEEKSGMEGRYKMFESES | 1.24 |
| DWRKNIEEKSGMEGRVKMFESES | 2.32 |
| DWRKNIEEKSGMEGRIKMFESES | 1.83 |
| DWRKNIEEKSGMEGRCKMFESES | 2.19 |
| DWRKNIEEKSGMEGRSKMFESES | 1.98 |
| DWRKNIEEKSGMEGRHKMFESES | 1.85 |
| DWRKNIEEKSGMEGRNKMFESES | 1.95 |
| DWRKNIEEKSGMEGRPKMFESES | 2.72 |
| DWRKNIEEKSGMEGRLKMFESES | 2.85 |
| DWRKNIEEKSGMEGRDKMFESES | 3.19 |
| DWRKNIEEKSGMEGRGKMFESES | 1.78 |
| DWRKNIEEKSGMEGREKMFESES | 2.39 |
| DWRKNIEEKSGMEGRWKMFESES | 1.85 |
| DWRKNIEEKSGMEGRRKMFESES | 2.3 |
| DWRKNIEEKSGMEGRTKMFESES | 2.07 |
| DWRKNIEEKSGMEGRMKMFESES | 1.92 |
| DWRKNIEEKSGMEGRQKMFESES | 2.19 |
